Experimental data from the Human Domainome abundance scans (Beltran et al. 2025).
± gives the uncertainty stated by the source.

B1: Zinc finger MYM-type protein 6, residues 427 to 504; numbered along this chain, O95789 (parent)
chain: KLKCQHCNHLFATKPELLFYKGKMFLFCGKNCSDEYKKKNKVVAMCDYCKLQKIIKETVRFSGVDKPFCSEVCKFLSA

Variants of: B1
Assay: abundance fitness (aPCA) (normalised: wild type 0, dead -1); higher = more abundant; growth selection in yeast, the domain comes from the species named
Conditions: Homo sapiens

In order of falling abundance fitness:
1. S62D  0.914 ± 0.083
2. I54C  0.675 ± 0.26
3. K74M  0.544 ± 0.11
4. K66V  0.542 ± 0.081
5. F75K  0.533 ± 0.1
6. L51R  0.509 ± 0.064
7. F75G  0.484 ± 0.061
8. Y48C  0.426 ± 0.21
9. V64Y  0.387 ± 0.21
10. F75L  0.365 ± 0.072
11. V64I  0.365 ± 0.2
12. C46I  0.329 ± 0.44
13. K66M  0.325 ± 0.15
14. I55P  0.281 ± 0.2
15. P67V  0.27 ± 0.12
16. V72A  0.252 ± 0.07
17. I54G  0.238 ± 0.06
18. I54R  0.157 ± 0.068
19. I54V  0.131 ± 0.076
20. F19E  0.129 ± 0.031
21. Q52P  0.108 ± 0.22
22. F19R  0.103 ± 0.03
23. K37N  0.097 ± 0.24
24. E71M  0.094 ± 0.14
25. F19Q  0.081 ± 0.048
26. L10E  0.063 ± 0.04
27. N31H  0.062 ± 0.19
28. V64R  0.058 ± 0.086
29. F19A  0.057 ± 0.03
30. Y20F  0.054 ± 0.065
31. L10A  0.051 ± 0.033
32. K37Q  0.051 ± 0.084
33. L10G  0.049 ± 0.028
34. L26T  0.035 ± 0.048
35. M24P  0.034 ± 0.041
36. F19S  0.033 ± 0.039
37. T58V  0.031 ± 0.1
38. L10Q  0.023 ± 0.04
39. K21G  0.019 ± 0.029
40. Y20T  0.019 ± 0.037
41. A12K  0.008 ± 0.049
42. D65M  0.006 ± 0.13
43. R60H  0.001 ± 0.28
44. G29K  -0.004 ± 0.07
45. G22Q  -0.011 ± 0.044
46. K74T  -0.017 ± 0.3
47. N31P  -0.018 ± 0.041
48. N40A  -0.02 ± 0.064
49. L18A  -0.031 ± 0.036
50. D47A  -0.033 ± 0.087
51. K23T  -0.036 ± 0.076
52. E16T  -0.037 ± 0.046
53. T13H  -0.039 ± 0.052
54. S33M  -0.042 ± 0.037
55. Y48R  -0.043 ± 0.076
56. K23A  -0.045 ± 0.032
57. K30S  -0.049 ± 0.032
58. N31W  -0.054 ± 0.037
59. I55R  -0.055 ± 0.077
60. K39T  -0.058 ± 0.057
61. M24G  -0.059 ± 0.03
62. E57V  -0.059 ± 0.1
63. Y20M  -0.062 ± 0.056
64. G22C  -0.063 ± 0.082
65. K38M  -0.063 ± 0.057
66. M24W  -0.065 ± 0.034
67. E35V  -0.07 ± 0.035
68. F27L  -0.073 ± 0.037
69. L18R  -0.077 ± 0.03
70. K3G  -0.078 ± 0.029
71. L18T  -0.081 ± 0.04
72. K23V  -0.091 ± 0.036
73. K21Y  -0.099 ± 0.042
74. N31C  -0.1 ± 0.047
75. K14L  -0.101 ± 0.033
76. E16C  -0.102 ± 0.045
77. N40H  -0.104 ± 0.057
78. Q5T  -0.113 ± 0.043
79. L18C  -0.113 ± 0.13
80. K37P  -0.114 ± 0.036
81. S33W  -0.114 ± 0.043
82. Q5L  -0.118 ± 0.039
83. Y20R  -0.121 ± 0.03
84. D47E  -0.125 ± 0.13
85. P15Q  -0.126 ± 0.049
86. S77A  -0.129 ± 0.097
87. A12H  -0.132 ± 0.074
88. L10I  -0.135 ± 0.11
89. S62T  -0.141 ± 0.28
90. K14V  -0.141 ± 0.033
91. S33G  -0.141 ± 0.027
92. Y36V  -0.15 ± 0.038
93. F19I  -0.152 ± 0.34
94. K21V  -0.155 ± 0.037
95. L18I  -0.159 ± 0.13
96. F27T  -0.161 ± 0.04
97. N40P  -0.172 ± 0.04
98. K23C  -0.172 ± 0.065
99. Y36N  -0.172 ± 0.17
100. L76W  -0.174 ± 0.11
101. T13L  -0.176 ± 0.034
102. E57R  -0.181 ± 0.087
103. K3M  -0.192 ± 0.051
104. E16Y  -0.194 ± 0.2
105. A12Y  -0.205 ± 0.08
106. Q5W  -0.206 ± 0.04
107. K1H  -0.209 ± 0.067
108. G22D  -0.215 ± 0.5
109. R60G  -0.215 ± 0.082
110. V43G  -0.224 ± 0.094
111. V59D  -0.246 ± 0.21
112. Q5S  -0.248 ± 0.053
113. C46P  -0.248 ± 0.2
114. K1M  -0.252 ± 0.05
115. G22F  -0.254 ± 0.36
116. Y36R  -0.26 ± 0.028
117. E16N  -0.26 ± 0.094
118. K1A  -0.276 ± 0.041
119. T58E  -0.277 ± 0.14
120. F68E  -0.278 ± 0.1
121. E71Y  -0.28 ± 0.19
122. C69E  -0.286 ± 0.15
123. K14M  -0.287 ± 0.042
124. F68L  -0.288 ± 0.13
125. K66A  -0.292 ± 0.23
126. K53R  -0.308 ± 0.096
127. R60L  -0.309 ± 0.13
128. C46T  -0.311 ± 0.18
129. K53W  -0.313 ± 0.09
130. P15M  -0.335 ± 0.056
131. S33P  -0.343 ± 0.045
132. C28D  -0.352 ± 0.061
133. K56L  -0.382 ± 0.16
134. C69P  -0.391 ± 0.18
135. D47R  -0.394 ± 0.09
136. Q5D  -0.405 ± 0.071
137. K14W  -0.408 ± 0.056
138. V59Q  -0.416 ± 0.12
139. K23W  -0.419 ± 0.044
140. D65G  -0.488 ± 0.1
141. S70G  -0.502 ± 0.098
142. F27E  -0.508 ± 0.051
143. F27N  -0.512 ± 0.19
144. Q52C  -0.576 ± 0.23
145. K74F  -0.594 ± 0.49
146. C69R  -0.602 ± 0.097
147. C49A  -0.604 ± 0.11
148. C32D  -0.607 ± 0.074
149. C28H  -0.608 ± 0.12
150. S77E  -0.615 ± 0.22
151. C46G  -0.629 ± 0.094
152. A44T  -0.629 ± 0.28
153. P15Y  -0.651 ± 0.2
154. K56C  -0.658 ± 0.43
155. K66S  -0.669 ± 0.31
156. C46E  -0.674 ± 0.13
157. C46S  -0.703 ± 0.17
158. V64W  -0.765 ± 0.18
159. C28L  -0.859 ± 0.087
160. C4R  -0.877 ± 0.053
161. C73E  -0.885 ± 0.18
162. S70R  -0.925 ± 0.14
163. C28V  -1.1 ± 0.11
164. S70W  -1.14 ± 0.27
165. C32T  -1.29 ± 0.23
166. S77L  -1.36 ± 0.4
167. C73P  -1.51 ± 0.47
